Source: patent WO2017015008A1 (dated 2017)

Legend:
[1] = target: T1, mouse mature HER3 ECD as shown in SEQ ID NO: 24 (mouse, UniProt Q61526 20-641); test: SPR (Biacore), antibody captured on Protein A, soluble HER3-ECD as analyte, 37°C, 1:1 model
T1 construct: also called mouse HER3 ECD; mouse soluble HER3-ECD

Rhesus mature HER3-ECD [2] = target: T2, Rhesus mature HER3-ECD (rhesus monkey, UniProt H9ERZ8 20-643); test: as above
T2 construct: extracellular domain; Bought protein; also called Rhesus HER3-ECD; cynomolgus monkey HER3-ECD

[3] = target: T3, human HER3 ECD as shown in SEQ ID NO: 23 (human, UniProt P21860 20-643); test: as above
T3 construct: also called soluble HER3-ECD

[4] = target: T1, mouse mature HER3 ECD as shown in SEQ …; test: SPR (Biacore), antibody captured on Protein A, soluble HER3-ECD as analyte
Rhesus mature HER3-ECD [5] = target: T2, Rhesus mature HER3-ECD; test: as above
[6] = target: T3, human HER3 ECD as shown in SEQ ID NO: 23; test: as above

T3 sequence (P21860 other isoform, or with tags, fused parts or gaps, form in doubt): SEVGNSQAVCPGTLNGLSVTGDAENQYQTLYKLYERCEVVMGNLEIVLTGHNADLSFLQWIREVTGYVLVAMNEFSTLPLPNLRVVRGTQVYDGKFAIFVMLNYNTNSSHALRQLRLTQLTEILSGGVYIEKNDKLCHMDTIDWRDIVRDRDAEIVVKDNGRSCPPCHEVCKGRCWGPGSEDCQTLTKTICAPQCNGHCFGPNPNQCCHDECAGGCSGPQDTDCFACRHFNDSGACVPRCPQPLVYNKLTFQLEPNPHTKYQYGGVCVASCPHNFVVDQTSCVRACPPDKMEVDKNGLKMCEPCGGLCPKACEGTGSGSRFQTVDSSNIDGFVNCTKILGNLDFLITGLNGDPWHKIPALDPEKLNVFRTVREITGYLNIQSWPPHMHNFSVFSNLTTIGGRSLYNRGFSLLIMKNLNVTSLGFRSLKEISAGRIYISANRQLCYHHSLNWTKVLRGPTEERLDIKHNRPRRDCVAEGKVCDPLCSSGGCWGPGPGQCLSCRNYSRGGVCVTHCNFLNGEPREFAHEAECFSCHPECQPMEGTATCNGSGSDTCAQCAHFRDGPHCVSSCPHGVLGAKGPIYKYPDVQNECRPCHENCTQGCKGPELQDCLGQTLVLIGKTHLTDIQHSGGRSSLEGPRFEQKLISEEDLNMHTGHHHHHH
T1 sequence (Q61526 20-641 limits assumed): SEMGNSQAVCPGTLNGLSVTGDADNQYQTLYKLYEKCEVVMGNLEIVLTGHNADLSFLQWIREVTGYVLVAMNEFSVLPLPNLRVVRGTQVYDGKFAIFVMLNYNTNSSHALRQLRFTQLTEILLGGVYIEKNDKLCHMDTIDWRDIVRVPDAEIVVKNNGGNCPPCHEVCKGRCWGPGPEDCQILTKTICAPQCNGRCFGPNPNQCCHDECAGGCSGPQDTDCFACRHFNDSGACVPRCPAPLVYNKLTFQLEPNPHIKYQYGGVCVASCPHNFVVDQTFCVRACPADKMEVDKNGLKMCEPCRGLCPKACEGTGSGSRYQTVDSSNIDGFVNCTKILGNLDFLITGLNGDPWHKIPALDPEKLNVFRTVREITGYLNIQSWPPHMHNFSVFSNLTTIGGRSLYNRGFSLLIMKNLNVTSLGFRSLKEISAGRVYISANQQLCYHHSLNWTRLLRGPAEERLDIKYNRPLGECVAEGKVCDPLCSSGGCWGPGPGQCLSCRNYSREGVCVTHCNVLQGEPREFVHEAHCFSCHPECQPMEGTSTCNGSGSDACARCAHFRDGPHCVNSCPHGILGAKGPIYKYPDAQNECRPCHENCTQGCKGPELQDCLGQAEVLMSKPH
T2 sequence (H9ERZ8 entry or part of it): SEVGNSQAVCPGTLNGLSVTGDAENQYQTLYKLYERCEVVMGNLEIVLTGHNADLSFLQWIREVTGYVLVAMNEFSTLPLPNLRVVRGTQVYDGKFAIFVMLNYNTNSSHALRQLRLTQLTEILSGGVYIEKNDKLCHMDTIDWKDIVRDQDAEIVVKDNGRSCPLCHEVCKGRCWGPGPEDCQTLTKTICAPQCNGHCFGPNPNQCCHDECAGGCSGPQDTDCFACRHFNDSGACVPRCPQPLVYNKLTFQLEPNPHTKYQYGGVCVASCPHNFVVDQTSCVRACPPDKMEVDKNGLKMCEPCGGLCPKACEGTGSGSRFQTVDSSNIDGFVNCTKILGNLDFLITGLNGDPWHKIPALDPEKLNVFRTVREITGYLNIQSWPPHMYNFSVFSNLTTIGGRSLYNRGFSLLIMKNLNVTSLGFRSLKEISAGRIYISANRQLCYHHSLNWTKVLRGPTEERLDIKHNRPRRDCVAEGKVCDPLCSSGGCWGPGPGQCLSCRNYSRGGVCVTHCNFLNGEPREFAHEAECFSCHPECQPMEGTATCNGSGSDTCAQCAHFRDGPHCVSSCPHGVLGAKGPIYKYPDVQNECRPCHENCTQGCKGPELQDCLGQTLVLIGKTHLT

Kd [1]: 3 nM | Kd (Rhesus mature HER3-ECD [2]): 2.1 nM | Kd [3]: 1.6 nM | binding stoichiometry [4]: ~2 moles of ligand per mole of antibody | binding stoichiometry (Rhesus mature HER3-ECD [5]): ~2 moles of ligand per mole of antibody | binding stoichiometry [6]: ~2 moles of ligand per mole of antibody
B1: anti-HER3 Antibody A (antibody, human IgG1, kappa, V domains shown)
VH: EVQLVESGGGLVKPGGSLRLSCAASGFSLDTYTMIWVRQAPGKGLEWVGIIYVTYNTYYANWAKGRFTISRDDSKNTLYLQMNSLKTEDTAVYYCTRWGDQNGLDIWGQGTLVTVSS
VL: DIQMTQSPSSLSASVGDRVTITCQSSQRVYGNKNLAWYQQKPGKAPKLLIYFARTLASGVPSRFSGSGSGTDFTLTISSLQPEDFATYYCQGTYYGTNWYVGFGGGTKVEIKR
notes: IgG type; human IgG1 Fc with C-terminal lysine deletion is stated only in embodiment language
